{
  "source": "paper PMC3607624",
  "about": "(Journal of molecular biology, 2011)",
  "key": {"F-actin": {"molecular_target": "F-actin (UniProt P68135 1-377)", "assay": "co-sedimentation"}, "[1]": {"molecular_target": "microtubules (tubulin heterodimer) (UniProt P02550 1-451)", "sequence (P02550 whole entry, chain 1 of 2)": "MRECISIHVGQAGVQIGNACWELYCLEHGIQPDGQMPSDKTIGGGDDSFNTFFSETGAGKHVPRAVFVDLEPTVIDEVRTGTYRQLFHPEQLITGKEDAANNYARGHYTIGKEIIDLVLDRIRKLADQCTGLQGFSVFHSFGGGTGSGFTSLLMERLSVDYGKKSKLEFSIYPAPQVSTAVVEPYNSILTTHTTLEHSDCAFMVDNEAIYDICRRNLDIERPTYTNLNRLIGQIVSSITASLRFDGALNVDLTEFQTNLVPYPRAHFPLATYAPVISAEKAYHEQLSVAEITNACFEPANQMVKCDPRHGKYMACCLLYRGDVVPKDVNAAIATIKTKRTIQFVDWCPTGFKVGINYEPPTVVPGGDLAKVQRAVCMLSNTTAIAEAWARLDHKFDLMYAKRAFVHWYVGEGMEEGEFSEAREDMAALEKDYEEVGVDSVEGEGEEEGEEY", "sequence (P02554 whole entry, chain 2 of 2, further chain)": "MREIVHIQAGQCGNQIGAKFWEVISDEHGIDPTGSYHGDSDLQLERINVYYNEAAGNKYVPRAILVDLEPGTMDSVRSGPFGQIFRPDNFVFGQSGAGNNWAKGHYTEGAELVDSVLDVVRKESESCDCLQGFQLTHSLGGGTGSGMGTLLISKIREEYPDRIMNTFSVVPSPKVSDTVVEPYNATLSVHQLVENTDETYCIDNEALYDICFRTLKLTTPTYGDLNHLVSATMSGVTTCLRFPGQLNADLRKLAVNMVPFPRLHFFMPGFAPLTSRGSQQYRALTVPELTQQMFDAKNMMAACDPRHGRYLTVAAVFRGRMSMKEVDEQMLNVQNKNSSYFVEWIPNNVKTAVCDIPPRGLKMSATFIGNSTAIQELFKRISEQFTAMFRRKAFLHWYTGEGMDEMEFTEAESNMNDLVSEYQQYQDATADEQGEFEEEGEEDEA", "assay": "co-sedimentation"}},
  "data": [
    {"binder": "Dictyostelium myosin 7 N-terminal MyTH4/FERM domain (MF1) (domain or fragment, Dictyostelium discoideum, UniProt Q9U1M8 1085-1620, looked up) SATATGNNTPNSSSASASQSTNQVNPQPTVSVVELPQILNDEEISLYSFYDYANKNFNIEKLKQKDDIFSYQKSHIKSSLLVHSDAEQTKVAVEIFSKVLHYMNSNPLVSKKDPADFYSPVKFILTKGLAIESLRDEIYCQLIKQSTSNPIQDLNIRVWELIHFTCSTFPPTRKLIKYFAAYLKTTIQQSDVSKSVKDSAQASYFILQRFTLNGARKQVPSVTELESIKENRPIFVRITATDGSLKGLHIDSATTCQESSNDLSQRSRMRVNSKENGFTIIESFNGIERDIAPTDKLCDVLSKVENLQATLSSKIQVNFKFVFKKKLFFDNITNNVPTTSINVENEFYYHQLFNDLFNSNYCKDQDYQISIGSLKLQFESSDYTDEIRAWLPGNGRGKYFTTDIEKNRFDDFINKYKSHKGLSPEDAKKQMVQLLEKHPLANCSLVVCEHQSESLPYPKNFVLALNVNGINIYDPATSKMLESVKYSNQSQQNLKSDDKSVSIILENKSTLQAFTGDVQKLVSLIKEYSLYLRNNA", "values": [
      {"measurement": "Kd", "setting": "F-actin", "value": "13.7 ± 2.6", "unit": "µM"},
      {"measurement": "Kd", "setting": "[1]", "value": "1.7 ± 0.5", "unit": "µM"}
    ]}
  ]
}
